Data taken from the Immune Epitope Database (IEDB).

Experiments:
[1] = target: HLA-A*68:02; experiment: IEDB peptide-MHC binding, purified MHC/direct/fluorescence; filed as Kd, often an IC50 or EC50 that approximates it; ≥ and ≤ were set here for values at or beyond the usual limits of such assays
[2] = target: HLA-A*02:01; experiment: as above
[3] = target: HLA-B*15:01; experiment: as above
[4] = target: HLA-B*58:01; experiment: as above
[5] = target: HLA-A*26:03; experiment: as above
[6] = target: HLA-B*46:01; experiment: as above
[7] = target: HLA-A*03:01; experiment: as above
[8] = target: HLA-A*31:01; experiment: as above
[9] = target: HLA-B*39:01; experiment: as above; conditions: source organism: Bacillus anthracis str. A0389
[10] = target: HLA-B*15:02; experiment: as above; conditions: source organism: Bacillus anthracis str. A0389
[11] = target: HLA-B*07:02; experiment: as above; conditions: source organism: Bacillus anthracis
[12] = target: HLA-A*69:01; experiment: as above
[13] = target: HLA-B*35:01; experiment: as above; conditions: source organism: Bacillus anthracis str. A0389
[14] = target: HLA-B*08:02; experiment: as above; conditions: source organism: Bacillus anthracis str. A0389
[15] = target: HLA-B*27:05; experiment: as above
[16] = target: HLA-B*15:17; experiment: as above
[17] = target: HLA-A*01:01; experiment: as above
[18] = target: HLA-B*48:01; experiment: as above
[19] = target: HLA-A*26:01; experiment: as above; conditions: source organism: Bacillus anthracis str. A0389
[20] = target: HLA-B*57:01; experiment: as above
[21] = target: HLA-A*11:01; experiment: IEDB peptide-MHC binding, purified MHC/competitive/fluorescence; filed as Kd, often an IC50 or EC50 that approximates it; ≥ and ≤ were set here for values at or beyond the usual limits of such assays; conditions: source organism: Bacillus anthracis str. A0389
[22] = target: HLA-A*30:01; experiment: as above; conditions: source organism: Bacillus anthracis str. A0389
[23] = target: HLA-B*08:03; experiment: IEDB peptide-MHC binding, purified MHC/direct/fluorescence; filed as Kd, often an IC50 or EC50 that approximates it; ≥ and ≤ were set here for values at or beyond the usual limits of such assays; conditions: source organism: Giardia lamblia ATCC 50803
[24] = target: HLA-A*11:01; experiment: as above; conditions: source organism: Giardia lamblia ATCC 50803
[25] = target: HLA-B*18:01; experiment: as above; conditions: source organism: Giardia lamblia ATCC 50803
[26] = target: HLA-B*40:01; experiment: as above; conditions: source organism: Giardia lamblia ATCC 50803
[27] = target: HLA-B*08:01; experiment: IEDB peptide-MHC binding, purified MHC/competitive/fluorescence; filed as Kd, often an IC50 or EC50 that approximates it; ≥ and ≤ were set here for values at or beyond the usual limits of such assays; conditions: source organism: Giardia lamblia ATCC 50803
[28] = target: HLA-B*07:02; experiment: as above; conditions: source organism: Giardia lamblia ATCC 50803
[29] = target: HLA-C*07:02; experiment: IEDB peptide-MHC binding, purified MHC/direct/fluorescence; filed as Kd, often an IC50 or EC50 that approximates it; ≥ and ≤ were set here for values at or beyond the usual limits of such assays; conditions: source organism: Homo sapiens
[30] = target: HLA-A*29:02; experiment: IEDB peptide-MHC binding, purified MHC/competitive/fluorescence; filed as Kd, often an IC50 or EC50 that approximates it; ≥ and ≤ were set here for values at or beyond the usual limits of such assays; conditions: source organism: Homo sapiens
[31] = target: HLA-A*80:01; experiment: as above; conditions: source organism: Homo sapiens
[32] = target: HLA-A*01:01; experiment: as above; conditions: source organism: Homo sapiens
[33] = source organism: Bacillus anthracis
[34] = source organism: Giardia lamblia ATCC 50803

Sequence: KLYVNGKAY
- Kd [1, 33]: ≥ 20 µM
- Kd [2, 33]: ≥ 20 µM
- Kd [3, 33]: 0.298 µM
- Kd [4, 33]: ≥ 20 µM
- Kd ([5]; source organism: Bacillus anthracis str. A0389): ≥ 20 µM
- Kd [6, 33]: 6 µM
- Kd [7, 33]: 0.032 µM
- Kd [8, 33]: ≥ 20 µM
- Kd [9]: ≥ 20 µM
- Kd [10]: 0.117 µM
- Kd [11]: ≥ 20 µM
- Kd [12, 33]: ≥ 20 µM
- Kd [13]: 1.63 µM
- Kd [14]: ≥ 20 µM
- Kd [15, 33]: ≥ 20 µM
- Kd [16, 33]: 0.0024 µM
- Kd [17, 33]: ≥ 20 µM
- Kd [18, 33]: ≥ 20 µM
- Kd [19]: ≥ 20 µM
- Kd [20, 33]: 0.507 µM
- Kd [21]: ≥ 20 µM
- Kd [22]: 0.4 µM

Sequence: EIRHRSGIQ
- Kd [23]: ≥ 20 µM
- Kd [1, 34]: ≥ 20 µM
- Kd [2, 34]: ≥ 20 µM
- Kd [3, 34]: ≥ 20 µM
- Kd [4, 34]: ≥ 20 µM
- Kd [5, 34]: ≥ 20 µM
- Kd [6, 34]: ≥ 20 µM
- Kd [7, 34]: 2 µM
- Kd [24]: 6.39 µM
- Kd [8, 34]: ≥ 20 µM
- Kd [25]: ≥ 20 µM
- Kd [12, 34]: ≥ 20 µM
- Kd [15, 34]: ≥ 20 µM
- Kd [16, 34]: ≥ 20 µM
- Kd [17, 34]: ≥ 20 µM
- Kd [18, 34]: ≥ 20 µM
- Kd [26]: ≥ 20 µM
- Kd [20, 34]: ≥ 20 µM
- Kd [27]: 9 µM
- Kd [28]: 0.41 µM

Sequence: YYSNKAYQY
- Kd [29]: 0.15 µM
- Kd [30]: ≤ 0.0001 µM
- Kd [31]: 0.373 µM
- Kd [32]: ≥ 20 µM
